Patent US20100130721A1

Molecular target: human polyclonal IgG (human)
Test: SPR (Biacore), His-tagged fusion protein captured on Ni-NTA chip, human IgG injected

Kd [nM]	koff [s⁻¹]	kon [M⁻¹ s⁻¹]	Binder
2.06	0.000312	151000	fusion protein PL1 (designed binder) ATIRANLIYADGRTQTAEFRGTFEEATAEAYRYADLLARENGRYTVDVADRGYTLNIRFAGGGGGCADDDDDDHHHHHH
1.34	0.000264	246000	fusion protein PL2 (designed binder) ATIRANLIYADGRTQTAEFRGTFEEATAEAYRYADLLPRENGRYTVDVADRGYTLNIRFAPGATIRANLIYADGRTQTAEFRGTFEEATAEAYRYADLLPRENGRYTVDVADRGYTLNIRFAGGGGGCADDDDDDHHHHHH
0.384	0.000154	401000	fusion protein PG1 (designed binder) AYRLILNGRTLRGETTTEAVDAATAERVFRQYANDNGVDGEWTYDDATRTFTVTERPEVIDASELTPAVTGGGGCADDDDDDHHHHHH
0.115	0.0001	864000	fusion protein PG2 (designed binder) AYRLILNGRTLRGETTTEAVDAATAERVFRQYANDNGVDGEWTYDDATRTFTVTERPEVIDASELTPAVTPGAYRLILNGRTLRGETTTEAVDAATAERVFRQYANDNGVDGEWTYDDATRTFTVTERPEVIDASELTPAVTGGGGCADDDDDDHHHHHH
0.068	7.63e-05	1.12e+06	fusion protein PG3 (designed binder) AYRLILNGRTLRGETTTEAVDAATAERVFRQYANDNGVDGEWTYDDATRTFTVTERPEVIDASELTPAVTPGAYRLILNGRTLRGETTTEAVDAATAERVFRQYANDNGVDGEWTYDDATRTFTVTERPEVIDASELTPAVTPGAYRLILNGRTLRGETTTEAVDAATAERVFRQYANDNGVDGEWTYDDATRTFTVTERPEVIDASELTPAVTGGGGCADDDDDDHHHHHH
0.788	0.000237	301000	fusion protein PL3 (designed binder) ATIRANLIYADGRTQTAEFRGTFEEATAEAYRYADLLPRENGRYTVDVADRGYTLNIRFAPGATIRANLIYADGRTQTAEFRGTFEEATAEAYRYADLLPRENGRYTVDVADRGYTLNIRFAPGATIRANLIYADGRTQTAEFRGTFEEATAEAYRYADLLPRENGRYTVDVADRGYTLNIRFAGGGGGCADDDDDDHHHHHH
